{"source": "the supplement of paper PMC10567573", "parents": {"B1": {"name": "TRIM39 (parent)", "chain": "YPCVLATEGFTSGRHYWEVEVGDK"}}}
{"variants_of": "B1", "assay": "protein stability index of a GFP-peptide fusion (GPS, HEK-293T) (PSI 1-6); higher = more stable", "settings": "c terminus: a fixed tail appended"}
{"variant": "YPCVLATGGFTSGRHYWEVEVGDK", "note": "[E8G]", "protein stability index": 2.09}
{"variant": "YPCVLATHGFTSGRHYWEVEVGDK", "note": "[E8H]", "protein stability index": 1.93}
{"variant": "YPCVLATIGFTSGRHYWEVEVGDK", "note": "[E8I]", "protein stability index": 2.16}
{"variant": "YPCVLATKGFTSGRHYWEVEVGDK", "note": "[E8K]", "protein stability index": 2.25}
{"variant": "YPCVLATLGFTSGRHYWEVEVGDK", "note": "[E8L]", "protein stability index": 1.89}
{"variant": "YPCVLATMGFTSGRHYWEVEVGDK", "note": "[E8M]", "protein stability index": 2.25}
{"variant": "YPCVLATNGFTSGRHYWEVEVGDK", "note": "[E8N]", "protein stability index": 1.85}
{"variant": "YPCVLATPGFTSGRHYWEVEVGDK", "note": "[E8P]", "protein stability index": 1.62}
{"variant": "YPCVLATQGFTSGRHYWEVEVGDK", "note": "[E8Q]", "protein stability index": 1.87}
{"variant": "YPCVLATRGFTSGRHYWEVEVGDK", "note": "[E8R]", "protein stability index": 1.58}
{"variant": "YPCVLATSGFTSGRHYWEVEVGDK", "note": "[E8S]", "protein stability index": 1.25}
{"variant": "YPCVLATTGFTSGRHYWEVEVGDK", "note": "[E8T]", "protein stability index": 2.01}
{"variant": "YPCVLATVGFTSGRHYWEVEVGDK", "note": "[E8V]", "protein stability index": 2.14}
{"variant": "YPCVLATYGFTSGRHYWEVEVGDK", "note": "[E8Y]", "protein stability index": 1.35}
{"variant": "YPCVLATEAFTSGRHYWEVEVGDK", "note": "[G9A]", "protein stability index": 2.49}
{"variant": "YPCVLATECFTSGRHYWEVEVGDK", "note": "[G9C]", "protein stability index": 1.57}
{"variant": "YPCVLATEDFTSGRHYWEVEVGDK", "note": "[G9D]", "protein stability index": 2.01}
{"variant": "YPCVLATEEFTSGRHYWEVEVGDK", "note": "[G9E]", "protein stability index": 2.2}
{"variant": "YPCVLATEFFTSGRHYWEVEVGDK", "note": "[G9F]", "protein stability index": 2.97}
{"variant": "YPCVLATEHFTSGRHYWEVEVGDK", "note": "[G9H]", "protein stability index": 1.6}
{"variant": "YPCVLATEIFTSGRHYWEVEVGDK", "note": "[G9I]", "protein stability index": 1.05}
{"variant": "YPCVLATEKFTSGRHYWEVEVGDK", "note": "[G9K]", "protein stability index": 1.8}
{"variant": "YPCVLATEMFTSGRHYWEVEVGDK", "note": "[G9M]", "protein stability index": 1.66}
{"variant": "YPCVLATENFTSGRHYWEVEVGDK", "note": "[G9N]", "protein stability index": 1.99}
{"variant": "YPCVLATEPFTSGRHYWEVEVGDK", "note": "[G9P]", "protein stability index": 2.21}
{"variant": "YPCVLATEQFTSGRHYWEVEVGDK", "note": "[G9Q]", "protein stability index": 2.04}
{"variant": "YPCVLATERFTSGRHYWEVEVGDK", "note": "[G9R]", "protein stability index": 2.38}
{"variant": "YPCVLATESFTSGRHYWEVEVGDK", "note": "[G9S]", "protein stability index": 1.81}
{"variant": "YPCVLATETFTSGRHYWEVEVGDK", "note": "[G9T]", "protein stability index": 2.03}
{"variant": "YPCVLATEVFTSGRHYWEVEVGDK", "note": "[G9V]", "protein stability index": 1.81}
{"variant": "YPCVLATEWFTSGRHYWEVEVGDK", "note": "[G9W]", "protein stability index": 1.96}
{"variant": "YPCVLATEYFTSGRHYWEVEVGDK", "note": "[G9Y]", "protein stability index": 2.22}
{"variant": "YPCVLATEGATSGRHYWEVEVGDK", "note": "[F10A]", "protein stability index": 1.55}
{"variant": "YPCVLATEGDTSGRHYWEVEVGDK", "note": "[F10D]", "protein stability index": 2.45}
{"variant": "YPCVLATEGETSGRHYWEVEVGDK", "note": "[F10E]", "protein stability index": 2.77}
{"variant": "YPCVLATEGGTSGRHYWEVEVGDK", "note": "[F10G]", "protein stability index": 2.48}
{"variant": "YPCVLATEGHTSGRHYWEVEVGDK", "note": "[F10H]", "protein stability index": 1.86}
{"variant": "YPCVLATEGITSGRHYWEVEVGDK", "note": "[F10I]", "protein stability index": 2.15}
{"variant": "YPCVLATEGKTSGRHYWEVEVGDK", "note": "[F10K]", "protein stability index": 1.4}
{"variant": "YPCVLATEGLTSGRHYWEVEVGDK", "note": "[F10L]", "protein stability index": 1.86}
{"variant": "YPCVLATEGMTSGRHYWEVEVGDK", "note": "[F10M]", "protein stability index": 2.69}
{"variant": "YPCVLATEGNTSGRHYWEVEVGDK", "note": "[F10N]", "protein stability index": 2.34}
{"variant": "YPCVLATEGPTSGRHYWEVEVGDK", "note": "[F10P]", "protein stability index": 2.12}
{"variant": "YPCVLATEGQTSGRHYWEVEVGDK", "note": "[F10Q]", "protein stability index": 1.63}
{"variant": "YPCVLATEGRTSGRHYWEVEVGDK", "note": "[F10R]", "protein stability index": 2.41}
{"variant": "YPCVLATEGSTSGRHYWEVEVGDK", "note": "[F10S]", "protein stability index": 1.9}
{"variant": "YPCVLATEGTTSGRHYWEVEVGDK", "note": "[F10T]", "protein stability index": 2.49}
{"variant": "YPCVLATEGVTSGRHYWEVEVGDK", "note": "[F10V]", "protein stability index": 1.66}
{"variant": "YPCVLATEGWTSGRHYWEVEVGDK", "note": "[F10W]", "protein stability index": 1.85}
{"variant": "YPCVLATEGYTSGRHYWEVEVGDK", "note": "[F10Y]", "protein stability index": 2.26}
{"variant": "YPCVLATEGFASGRHYWEVEVGDK", "note": "[T11A]", "protein stability index": 1.97}
{"variant": "YPCVLATEGFCSGRHYWEVEVGDK", "note": "[T11C]", "protein stability index": 1.73}
{"variant": "YPCVLATEGFDSGRHYWEVEVGDK", "note": "[T11D]", "protein stability index": 2.17}
{"variant": "YPCVLATEGFESGRHYWEVEVGDK", "note": "[T11E]", "protein stability index": 2.39}
{"variant": "YPCVLATEGFFSGRHYWEVEVGDK", "note": "[T11F]", "protein stability index": 2.55}
{"variant": "YPCVLATEGFGSGRHYWEVEVGDK", "note": "[T11G]", "protein stability index": 2.09}
{"variant": "YPCVLATEGFHSGRHYWEVEVGDK", "note": "[T11H]", "protein stability index": 1.71}
{"variant": "YPCVLATEGFISGRHYWEVEVGDK", "note": "[T11I]", "protein stability index": 2.59}
{"variant": "YPCVLATEGFKSGRHYWEVEVGDK", "note": "[T11K]", "protein stability index": 2.19}
{"variant": "YPCVLATEGFLSGRHYWEVEVGDK", "note": "[T11L]", "protein stability index": 1.89}
{"variant": "YPCVLATEGFMSGRHYWEVEVGDK", "note": "[T11M]", "protein stability index": 1.73}
{"variant": "YPCVLATEGFNSGRHYWEVEVGDK", "note": "[T11N]", "protein stability index": 2.67}
{"variant": "YPCVLATEGFPSGRHYWEVEVGDK", "note": "[T11P]", "protein stability index": 2.19}
{"variant": "YPCVLATEGFQSGRHYWEVEVGDK", "note": "[T11Q]", "protein stability index": 1.72}
{"variant": "YPCVLATEGFRSGRHYWEVEVGDK", "note": "[T11R]", "protein stability index": 2.82}
{"variant": "YPCVLATEGFSSGRHYWEVEVGDK", "note": "[T11S]", "protein stability index": 1.58}
{"variant": "YPCVLATEGFVSGRHYWEVEVGDK", "note": "[T11V]", "protein stability index": 1.44}
{"variant": "YPCVLATEGFWSGRHYWEVEVGDK", "note": "[T11W]", "protein stability index": 2.66}
{"variant": "YPCVLATEGFYSGRHYWEVEVGDK", "note": "[T11Y]", "protein stability index": 3.04}
{"variant": "YPCVLATEGFTAGRHYWEVEVGDK", "note": "[S12A]", "protein stability index": 2.15}
{"variant": "YPCVLATEGFTCGRHYWEVEVGDK", "note": "[S12C]", "protein stability index": 1.96}
{"variant": "YPCVLATEGFTDGRHYWEVEVGDK", "note": "[S12D]", "protein stability index": 2.79}
{"variant": "YPCVLATEGFTFGRHYWEVEVGDK", "note": "[S12F]", "protein stability index": 1.34}
{"variant": "YPCVLATEGFTGGRHYWEVEVGDK", "note": "[S12G]", "protein stability index": 1.6}
{"variant": "YPCVLATEGFTHGRHYWEVEVGDK", "note": "[S12H]", "protein stability index": 1.67}
{"variant": "YPCVLATEGFTIGRHYWEVEVGDK", "note": "[S12I]", "protein stability index": 2.33}
{"variant": "YPCVLATEGFTKGRHYWEVEVGDK", "note": "[S12K]", "protein stability index": 1.95}
{"variant": "YPCVLATEGFTLGRHYWEVEVGDK", "note": "[S12L]", "protein stability index": 1.97}
{"variant": "YPCVLATEGFTMGRHYWEVEVGDK", "note": "[S12M]", "protein stability index": 3.54}
{"variant": "YPCVLATEGFTNGRHYWEVEVGDK", "note": "[S12N]", "protein stability index": 1.95}
{"variant": "YPCVLATEGFTPGRHYWEVEVGDK", "note": "[S12P]", "protein stability index": 1.81}
{"variant": "YPCVLATEGFTQGRHYWEVEVGDK", "note": "[S12Q]", "protein stability index": 1.66}
{"variant": "YPCVLATEGFTRGRHYWEVEVGDK", "note": "[S12R]", "protein stability index": 2.79}
{"variant": "YPCVLATEGFTTGRHYWEVEVGDK", "note": "[S12T]", "protein stability index": 1.76}
{"variant": "YPCVLATEGFTVGRHYWEVEVGDK", "note": "[S12V]", "protein stability index": 1.6}
{"variant": "YPCVLATEGFTWGRHYWEVEVGDK", "note": "[S12W]", "protein stability index": 1.98}
{"variant": "YPCVLATEGFTYGRHYWEVEVGDK", "note": "[S12Y]", "protein stability index": 1.68}
{"variant": "YPCVLATEGFTSARHYWEVEVGDK", "note": "[G13A]", "protein stability index": 1.48}
{"variant": "YPCVLATEGFTSCRHYWEVEVGDK", "note": "[G13C]", "protein stability index": 1.91}
{"variant": "YPCVLATEGFTSDRHYWEVEVGDK", "note": "[G13D]", "protein stability index": 2.24}
{"variant": "YPCVLATEGFTSERHYWEVEVGDK", "note": "[G13E]", "protein stability index": 1.87}
{"variant": "YPCVLATEGFTSFRHYWEVEVGDK", "note": "[G13F]", "protein stability index": 1.56}
{"variant": "YPCVLATEGFTSHRHYWEVEVGDK", "note": "[G13H]", "protein stability index": 1.46}
{"variant": "YPCVLATEGFTSIRHYWEVEVGDK", "note": "[G13I]", "protein stability index": 1.73}
